Results from patent US10227388B2, “Peptides and combination of peptides for use in immunotherapy against non-small cell lung cancer and other cancers” (immatics biotechnologies GmbH, priority 2015, dated 2019).

Molecular target: HLA-A*02:01 (Homo sapiens, UniProt P04439, D140Y/D185E/D98H/E176V/E277Q/G131W/G231S/I119V/I121R/I166T/I218V/L300P/L318F/N151K/N90K/P208A/P217A/Q86G/Q94H/R138H/R169H/T345S)
Experiment: MHC binding assay (UV-ligand exchange, ELISA, peptide exchange yield)
Settings: binding of HLA-class I restricted peptides to HLA-A*02:01
From the text: Candidate peptides for T cell based therapies according to the present invention were further tested for their MHC binding capacity (affinity). The individual peptide-MHC complexes were produced by UV-ligand exchange, where a UV-sensitive peptide is cleaved upon UV-irradiation, and exchanged with the peptide of interest as analyzed. Only peptide candidates that can effectively bind and stabilize the peptide-receptive MHC molecules prevent dissociation of the MHC complexes. To determine the yield of the exchange reaction, an ELISA was performed based on the detection of the light chain ([…]) of stabilized MHC complexes. The assay was performed as generally described in Rodenko et al. (Rodenko et al., 2006).
96 well MAXISorp plates (NUNC) were coated over night with 2-ug/ml streptavidin in PBS at room temperature, washed 4× and blocked for 1 h at 37° C. in 2% BSA containing blocking buffer. […] Peptide-MHC monomers of the UV-exchange reaction were diluted 100 fold in blocking buffer. Samples were incubated for 1 h at 37° C., washed four times, incubated with 2-ug/ml HRP conjugated anti-β2m for 1 h at 37° C., washed again and detected with TMB solution that is stopped with […]. Absorption was measured at 450 nm. Candidate peptides that show a high exchange yield (preferably higher than 50%, most preferred higher than 75%) are generally preferred for a generation and production of antibodies or fragments thereof, and/or T cell receptors or fragments thereof, as they show sufficient avidity to the MHC molecules and prevent dissociation of the MHC complexes.

74 (ALLDPEVLSIFV; listed as Homo sapiens) [compound 74]
Peptide exchange (MHC class I binding score, peptide exchange yield): ″+++″ (≥50% = +++)

75 (GLLEVMVNL; listed as Homo sapiens) [compound 75]
Peptide exchange (MHC class I binding score, peptide exchange yield): ″+++″ (≥50% = +++)

76 (ILIDSIYKV; listed as Homo sapiens) [compound 76]
Peptide exchange (MHC class I binding score, peptide exchange yield): ″+++″ (≥50% = +++)

77 (ILVEADGAWVV; listed as Homo sapiens) [compound 77]
Peptide exchange (MHC class I binding score, peptide exchange yield): ″++++″ (≥75% = ++++)

78 (SLFSSLEPQIQPV; listed as Homo sapiens) [compound 78]
Peptide exchange (MHC class I binding score, peptide exchange yield): ″+++″ (≥50% = +++)

80 (FLYDNLVESL; listed as Homo sapiens) [compound 80]
Peptide exchange (MHC class I binding score, peptide exchange yield): ″++″ (≥20% = ++)

81 (FLFSQLQYL; listed as Homo sapiens) [compound 81]
Peptide exchange (MHC class I binding score, peptide exchange yield): ″++″ (≥20% = ++)

82 (FLSSVTYNL; listed as Homo sapiens) [compound 82]
Peptide exchange (MHC class I binding score, peptide exchange yield): ″+++″ (≥50% = +++)

83 (ILAPTVMMI; listed as Homo sapiens) [compound 83]
Peptide exchange (MHC class I binding score, peptide exchange yield): ″+++″ (≥50% = +++)

84 (VTFGEKLLGV; listed as Homo sapiens) [compound 84]
Peptide exchange (MHC class I binding score, peptide exchange yield): ″++″ (≥20% = ++)

85 (KMSELRVTL; listed as Homo sapiens) [compound 85]
Peptide exchange (MHC class I binding score, peptide exchange yield): ″+++″ (≥50% = +++)

86 (NLIGKIENV; listed as Homo sapiens) [compound 86]
Peptide exchange (MHC class I binding score, peptide exchange yield): ″+++″ (≥50% = +++)

87 (ALPEAPAPLLPHIT; listed as Homo sapiens) [compound 87]
Peptide exchange (MHC class I binding score, peptide exchange yield): ″++″ (≥20% = ++)

88 (FLLVGDLMAV; listed as Homo sapiens) [compound 88]
Peptide exchange (MHC class I binding score, peptide exchange yield): ″+++″ (≥50% = +++)

89 (YILPTETIYV; listed as Homo sapiens) [compound 89]
Peptide exchange (MHC class I binding score, peptide exchange yield): ″++++″ (≥75% = ++++)

90 (TLLQIIETV; listed as Homo sapiens) [compound 90]
Peptide exchange (MHC class I binding score, peptide exchange yield): ″+++″ (≥50% = +++)

91 (IMQDFPAEIFL; listed as Homo sapiens) [compound 91]
Peptide exchange (MHC class I binding score, peptide exchange yield): ″++++″ (≥75% = ++++)

92 (YLIPFTGIVGL; listed as Homo sapiens) [compound 92]
Peptide exchange (MHC class I binding score, peptide exchange yield): ″++″ (≥20% = ++)

93 (LLQAIKLYL; listed as Homo sapiens) [compound 93]
Peptide exchange (MHC class I binding score, peptide exchange yield): ″++″ (≥20% = ++)

94 (YLIDIKTIAI; listed as Homo sapiens) [compound 94]
Peptide exchange (MHC class I binding score, peptide exchange yield): ″++″ (≥20% = ++)

95 (SVIPQIQKV; listed as Homo sapiens) [compound 95]
Peptide exchange (MHC class I binding score, peptide exchange yield): ″+++″ (≥50% = +++)

96 (YIFTDNPAAV; listed as Homo sapiens) [compound 96]
Peptide exchange (MHC class I binding score, peptide exchange yield): ″+++″ (≥50% = +++)

97 (SLINGSFLV; listed as Homo sapiens) [compound 97]
Peptide exchange (MHC class I binding score, peptide exchange yield): ″+++″ (≥50% = +++)

98 (LIIDQADIYL; listed as Homo sapiens) [compound 98]
Peptide exchange (MHC class I binding score, peptide exchange yield): ″+++″ (≥50% = +++)

99 (ALVSKGLATV; listed as Homo sapiens) [compound 99]
Peptide exchange (MHC class I binding score, peptide exchange yield): ″++″ (≥20% = ++)

100 (YLLSTNAQL; listed as Homo sapiens) [compound 100]
Peptide exchange (MHC class I binding score, peptide exchange yield): ″++++″ (≥75% = ++++)

101 (ILVGGGALATV; listed as Homo sapiens) [compound 101]
Peptide exchange (MHC class I binding score, peptide exchange yield): ″+++″ (≥50% = +++)

102 (YLFESEGLVL; listed as Homo sapiens) [compound 102]
Peptide exchange (MHC class I binding score, peptide exchange yield): ″+++″ (≥50% = +++)

103 (TLAEEVVAL; listed as Homo sapiens) [compound 103]
Peptide exchange (MHC class I binding score, peptide exchange yield): ″+++″ (≥50% = +++)

104 (STMEQNFLL; listed as Homo sapiens) [compound 104]
Peptide exchange (MHC class I binding score, peptide exchange yield): ″++++″ (≥75% = ++++)

106 (LLYDAVHIVSV; listed as Homo sapiens) [compound 106]
Peptide exchange (MHC class I binding score, peptide exchange yield): ″+++″ (≥50% = +++)

107 (FLQPVDDTQHL; listed as Homo sapiens) [compound 107]
Peptide exchange (MHC class I binding score, peptide exchange yield): ″+++″ (≥50% = +++)

108 (ALFPGVALLLA; listed as Homo sapiens) [compound 108]
Peptide exchange (MHC class I binding score, peptide exchange yield): ″++++″ (≥75% = ++++)

109 (IILSILEQA; listed as Homo sapiens) [compound 109]
Peptide exchange (MHC class I binding score, peptide exchange yield): ″++++″ (≥75% = ++++)

110 (FLSQVDFEL; listed as Homo sapiens) [compound 110]
Peptide exchange (MHC class I binding score, peptide exchange yield): ″+++″ (≥50% = +++)

111 (YVWGFYPAEV; listed as Homo sapiens) [compound 111]
Peptide exchange (MHC class I binding score, peptide exchange yield): ″+++″ (≥50% = +++)

114 (SLVGEPILQNV; listed as Homo sapiens) [compound 114]
Peptide exchange (MHC class I binding score, peptide exchange yield): ″++″ (≥20% = ++)

115 (AIAGAGILYGV; listed as Homo sapiens) [compound 115]
Peptide exchange (MHC class I binding score, peptide exchange yield): ″++″ (≥20% = ++)

116 (YHIDEEVGF; listed as Homo sapiens) [compound 116]
Peptide exchange (MHC class I binding score, peptide exchange yield): ″+″ (≥10% = +)

117 (ILPDGEDFLAV; listed as Homo sapiens) [compound 117]
Peptide exchange (MHC class I binding score, peptide exchange yield): ″+++″ (≥50% = +++)

119 (FLYIGDIVSL; listed as Homo sapiens) [compound 119]
Peptide exchange (MHC class I binding score, peptide exchange yield): ″++++″ (≥75% = ++++)

120 (ALLGIPLTLV; listed as Homo sapiens) [compound 120]
Peptide exchange (MHC class I binding score, peptide exchange yield): ″+++″ (≥50% = +++)

121 (GVVDPRAISVL; listed as Homo sapiens) [compound 121]
Peptide exchange (MHC class I binding score, peptide exchange yield): ″++″ (≥20% = ++)

122 (FLLAEDDIYL; listed as Homo sapiens) [compound 122]
Peptide exchange (MHC class I binding score, peptide exchange yield): ″+++″ (≥50% = +++)

123 (NLWDLTDASVV; listed as Homo sapiens) [compound 123]
Peptide exchange (MHC class I binding score, peptide exchange yield): ″+++″ (≥50% = +++)

124 (ALYETELADA; listed as Homo sapiens) [compound 124]
Peptide exchange (MHC class I binding score, peptide exchange yield): ″++″ (≥20% = ++)

125 (VQIHQVAQV; listed as Homo sapiens) [compound 125]
Peptide exchange (MHC class I binding score, peptide exchange yield): ″+++″ (≥50% = +++)

126 (VLAYFLPEA; listed as Homo sapiens) [compound 126]
Peptide exchange (MHC class I binding score, peptide exchange yield): ″++++″ (≥75% = ++++)

127 (KIGDEPPKV; listed as Homo sapiens) [compound 127]
Peptide exchange (MHC class I binding score, peptide exchange yield): ″++″ (≥20% = ++)

128 (YLFDDPLSAV; listed as Homo sapiens) [compound 128]
Peptide exchange (MHC class I binding score, peptide exchange yield): ″++″ (≥20% = ++)

129 (GLLDGGVDILL; listed as Homo sapiens) [compound 129]
Peptide exchange (MHC class I binding score, peptide exchange yield): ″+++″ (≥50% = +++)

130 (FLWNGEDSALL; listed as Homo sapiens) [compound 130]
Peptide exchange (MHC class I binding score, peptide exchange yield): ″+++″ (≥50% = +++)

131 (FVPPVTVFPSL; listed as Homo sapiens) [compound 131]
Peptide exchange (MHC class I binding score, peptide exchange yield): ″++″ (≥20% = ++)

132 (LLVEQPPLAGV; listed as Homo sapiens) [compound 132]
Peptide exchange (MHC class I binding score, peptide exchange yield): ″+++″ (≥50% = +++)

133 (KVLSNIHTV; listed as Homo sapiens) [compound 133]
Peptide exchange (MHC class I binding score, peptide exchange yield): ″++″ (≥20% = ++)

134 (YLQELIFSV; listed as Homo sapiens) [compound 134]
Peptide exchange (MHC class I binding score, peptide exchange yield): ″+++″ (≥50% = +++)

135 (ALSEVDFQL; listed as Homo sapiens) [compound 135]
Peptide exchange (MHC class I binding score, peptide exchange yield): ″+++″ (≥50% = +++)

136 (YLADPSNLFVV; listed as Homo sapiens) [compound 136]
Peptide exchange (MHC class I binding score, peptide exchange yield): ″+++″ (≥50% = +++)

137 (TLVLTLPTV; listed as Homo sapiens) [compound 137]
Peptide exchange (MHC class I binding score, peptide exchange yield): ″++++″ (≥75% = ++++)

138 (YQYPRAILSV; listed as Homo sapiens) [compound 138]
Peptide exchange (MHC class I binding score, peptide exchange yield): ″+++″ (≥50% = +++)

139 (SVMEVNSGIYRV; listed as Homo sapiens) [compound 139]
Peptide exchange (MHC class I binding score, peptide exchange yield): ″+++″ (≥50% = +++)
